Data taken from patent publication US20160289285A1 (Molecular Partners, published 2016).
Where “and” joins values, the source holds several entries; their conditions need not be identical. Equal values may be shown once. Read-outs that look alike come from different tables or passages of the source.

B2: human VEGF-A (ligand, UniProt P15692-4 27-191, looked up)
chain: APMAEGGGQNHHEVVKFMDVYQRSYCHPIETLVDIFQEYPDEIEYIFKPSCVPLMRCGGCCNDEGLECVPTEESNITMQIMRIKPHQGQHIGEMSFLQHNKCECRPKKDRARQENPCGPCSERRKHLFVQDPQTCKCSCKNTDSRCKARQLELNERTCRCDKPRR
notes: Recombinant, bought or produced in CHO or Pichia pastoris; also called hVEGF-A

Columns and labels:
human VEGF-A [1] = target: B2; assay: VEGF-A competition ELISA as in Example 3; competitor: immobilised anti-VEGF-A monoclonal antibody
Description: (§1) After washing away any unbound substances, an enzyme-linked polyclonal antibody specific for VEGF-A is added to the wells. Following a wash to remove any unbound antibody-enzyme reagent, a substrate solution is added to the wells and color develops in proportion to the amount of VEGF-A bound in the initial step. The color development is stopped and the intensity of the color is measured. […] IC₅₀ values were calculated from such titration curves obtained as described above using Graph Pad Prism software and standard procedures known to the person skilled in the art. For designed ankyrin repeat domains with binding specificity to HGF, a cMet receptor competition assay was performed. For that purpose, 5 nM of human cMet receptor in PBS were immobilized on Maxisorp plates overnight at 4° C. After washing with PBS 0.05% TWEEN 20, the plate was blocked for 2 h with shaking at 300 rpm using PBS containing 0.05% TWEEN 20 and 0.25% Casein at RT. A constant concentration of 5 nM human HGF was pre-incubated for 30 min at RT with a 1000 nM-1 pM of Proteins #23, #26, #28, and #29 (1:4 dilution series each) on a dilution plate in PBS 0.05% TWEEN 20. After washing of the ELISA plate with PBS 0.05% TWEEN, pre-incubated samples were transferred to the ELISA plate and plate was incubated for 2 h at RT with shaking at 300 rpm. […] Readout was done at A450 using A620 as reference wavelength. […]

human VEGF-A [2] = target: B2; assay: ELISA, immobilised target
Human PDGF-AB = target: T1, Human PDGF-AB (human, UniProt P04085 87-211; P01127 82-190, limits assumed); assay: ELISA, immobilised target
T1 construct: Heterodimer by its name

Human VEGF-C = target: T2, Human VEGF-C (human, UniProt P49767 103-227, limits assumed); assay: ELISA, immobilised target
T2 sequence (looked up): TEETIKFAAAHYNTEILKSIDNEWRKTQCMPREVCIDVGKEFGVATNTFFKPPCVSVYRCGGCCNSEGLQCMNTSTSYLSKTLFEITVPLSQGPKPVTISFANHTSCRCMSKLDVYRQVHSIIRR

human HGF [3] = target: T3, human HGF (human, UniProt P14210 32-728); assay: HGF/cMet competition ELISA as in Example 3
T3 construct: also called hepatocyte growth factor
Description: as §1

human HGF [4] = target: T3, human HGF; assay: ELISA, immobilised target
Description: (§2) 100 μl or 50 μl of 20 nM target (VEGF-A, HGF, or serum albumin) in PBS per well were immobilized in a Maxisorp plate (Nunc, Denmark) overnight at 4° C. After washing 5 times with 300 μl PBST (PBS supplemented with 0.1% Tween 20), the wells were blocked with 300 μl PBST-C (PBST supplemented with 0.25% casein) for 2 h at room temperature with shaking at 450 rpm on a Titramax 1000 shaker (Heidolph, Germany). […] After washing 5 times as described above, bound anti-designed ankyrin repeat domain antibody was detected using 100 μl or 50 μl/well goat anti-rabbit IgG-HRP conjugate in PBST-C for 1 h at room temperature with shaking at 450 rpm. After washing 5 times as described above, the ELISA was then developed using 100 μl BM soluble blue POD substrate (Roche, Switzerland), diluted 1:4 in water. The reaction was stopped after 5 min using 100 μl 1 M H₂SO₄. The OD (OD 450 nm-OD 620 nm) was then recorded.
(§3) Cynomolgus monkey VEGF-A is identical to human VEGF-A and was thus not tested separately.

human VEGF-A [5] = target: B2; assay: ELISA, immobilised target; remark: listed apart in the source
Description: as §2, §3

[6] = target: cynomolgus monkey serum albumin (cynomolgus monkey, UniProt A2V9Z4 25-608); assay: ELISA, immobilised target
Description: as §2, §3

human serum albumin = target: T4, human serum albumin (human, UniProt P02768 25-609); assay: ELISA, immobilised target
T4 construct: For SEC-MALS purified from CSL Behring 20% solution; also called HSA; SA (human)
Description: as §2, §3

mouse VEGF-A = target: T5, mouse VEGF-A (mouse, UniProt Q00731-2 27-190, limits assumed); assay: ELISA, immobilised target
T5 sequence (looked up): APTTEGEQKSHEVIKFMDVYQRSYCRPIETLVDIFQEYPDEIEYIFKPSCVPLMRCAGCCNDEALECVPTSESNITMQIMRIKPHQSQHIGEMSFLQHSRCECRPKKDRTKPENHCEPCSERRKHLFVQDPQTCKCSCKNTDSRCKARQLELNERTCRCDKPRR
Description: as §2, §3

mouse HGF = mouse HGF (mouse, UniProt Q08048 33-728); assay: ELISA, immobilised target
Description: as §2, §3

mouse serum albumin = mouse serum albumin (mouse, UniProt P07724 25-608); assay: ELISA, immobilised target
Description: as §2, §3

dog serum albumin = dog serum albumin (dog, UniProt P49822 25-608); assay: ELISA, immobilised target
Description: as §2, §3

rat serum albumin = rat serum albumin (rat, UniProt P02770 25-608); assay: ELISA, immobilised target
Description: as §2, §3

cynomolgus monkey HGF = cynomolgus monkey HGF (cynomolgus monkey, UniProt C9E9X5 32-728); assay: ELISA, immobilised target
Description: as §2, §3

rat VEGF-A = target: T6, rat VEGF-A (rat, UniProt P16612-2 27-190, limits assumed); assay: ELISA, immobilised target
T6 sequence (looked up): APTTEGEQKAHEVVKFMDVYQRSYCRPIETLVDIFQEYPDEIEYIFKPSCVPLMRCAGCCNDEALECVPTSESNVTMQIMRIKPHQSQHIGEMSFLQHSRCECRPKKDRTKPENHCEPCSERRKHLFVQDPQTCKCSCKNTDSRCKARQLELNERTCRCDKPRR
Description: as §2, §3

human VEGF-A [7] = target: B2; assay: VEGF-A competition binding ELISA (FIG. 7C)
Description: as §1

[8] = target: biotinylated VEGF-A165 (Reliatech, #300-076Bi-L) (UniProt P15692-4 27-191, biotinylated); assay: VEGF-A/VEGFR-2 competition FRET (HTRF); 10 nM VEGF-R2-Fc, 10 nM biotinylated VEGF-A165
Description: Such competition FRET and ELISA assays are well known to the person skilled in the art. […] In parallel, 5 μl of Streptavidin-Tb (streptavidin-Lumi4-terbium cryptate donor, Cisbio #610SATLB) and 5 μl of PAb anti-hIgG-de (D2-conjugated goat anti-Human IgG, Cisbio #61 HFCDAA) were added to 500 μl of PBST-BSA buffer and incubated for 20 minutes (2× reagent). Ten μl/well of 2× reagent were dispensed in a 384-well HTRF white-plate (Thermo Fisher Scientific Inc.) and 5 μl/well of four-time concentration hVEGF-R2-Fc fusion (Reliatech #SFC-008) were added. Five μl of the preincubated competition mixture were then added to wells. The complete reaction mix was incubated in the dark for 1 hour at room temperature before the fluorescence read out using a fluorescence reader. […] The read-out was done for A665 nm and […] wavelength (Excitation 340 nm).

human HGF [9] = target: T3, human HGF; assay: cell-based or functional assay
human VEGF-A [10] = target: B2; assay: cell-based or functional assay
human HGF [11] = target: T3, human HGF; assay: SPR (ProteOn), human HGF immobilised, injection scheme PBST-hVEGF-A-PBST
Description: FIG. 8. SPR analysis of recombinant binding proteins. […] The control injections indicate that no unspecific interaction occurs. RU: resonance units; t: time in seconds.
SPR was measured in a similar way as described in Example 2, with the following setup. 2700 RU human HGF were immobilized on a sensor chip. […] Following this, 100 nM human VEGF-A or PBST were injected for 180 seconds (leading to saturation) followed by a PBST wash of 360 seconds. Finally, 100 nM human serum albumin or PBST were injected for 180 seconds followed by a PBST wash of 600 seconds.

T3 sequence (P14210 32-728 limits assumed): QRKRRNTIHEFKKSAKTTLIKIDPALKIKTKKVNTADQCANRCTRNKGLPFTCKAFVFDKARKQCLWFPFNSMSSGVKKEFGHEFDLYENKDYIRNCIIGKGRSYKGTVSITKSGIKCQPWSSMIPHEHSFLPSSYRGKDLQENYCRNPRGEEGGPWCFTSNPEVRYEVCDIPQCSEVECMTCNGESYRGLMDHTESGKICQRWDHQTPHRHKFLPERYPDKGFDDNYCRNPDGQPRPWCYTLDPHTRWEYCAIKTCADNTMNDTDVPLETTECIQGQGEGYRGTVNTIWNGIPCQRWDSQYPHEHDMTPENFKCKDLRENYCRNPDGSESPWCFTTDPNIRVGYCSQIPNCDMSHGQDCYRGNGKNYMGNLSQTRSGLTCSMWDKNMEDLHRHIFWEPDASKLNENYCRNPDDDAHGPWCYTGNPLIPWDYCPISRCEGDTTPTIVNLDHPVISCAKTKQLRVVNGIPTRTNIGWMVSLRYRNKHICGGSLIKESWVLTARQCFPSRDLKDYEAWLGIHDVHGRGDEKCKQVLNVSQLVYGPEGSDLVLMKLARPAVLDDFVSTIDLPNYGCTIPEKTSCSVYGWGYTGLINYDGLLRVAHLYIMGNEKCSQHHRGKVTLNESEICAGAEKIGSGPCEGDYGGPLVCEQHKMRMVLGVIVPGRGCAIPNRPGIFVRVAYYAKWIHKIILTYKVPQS
Sequence of cynomolgus monkey serum albumin (A2V9Z4 25-608 limits assumed): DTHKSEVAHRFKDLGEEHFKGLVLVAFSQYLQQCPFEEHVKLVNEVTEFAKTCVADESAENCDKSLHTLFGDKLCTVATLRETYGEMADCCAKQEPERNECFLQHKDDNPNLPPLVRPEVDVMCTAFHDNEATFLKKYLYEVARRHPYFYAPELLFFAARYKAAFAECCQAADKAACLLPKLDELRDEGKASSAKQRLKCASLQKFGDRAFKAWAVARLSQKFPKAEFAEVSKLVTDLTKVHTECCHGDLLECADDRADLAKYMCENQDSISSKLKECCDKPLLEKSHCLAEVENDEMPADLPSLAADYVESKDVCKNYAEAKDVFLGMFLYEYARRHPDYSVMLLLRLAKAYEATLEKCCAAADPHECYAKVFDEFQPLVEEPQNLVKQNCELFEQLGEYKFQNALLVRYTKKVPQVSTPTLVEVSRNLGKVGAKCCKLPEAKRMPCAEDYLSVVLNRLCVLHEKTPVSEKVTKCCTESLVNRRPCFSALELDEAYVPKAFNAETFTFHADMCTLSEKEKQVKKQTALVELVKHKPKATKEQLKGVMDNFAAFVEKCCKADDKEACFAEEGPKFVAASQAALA
T1 sequence (P01127 82-190 limits assumed, chain 2 of 2, other chains not shown): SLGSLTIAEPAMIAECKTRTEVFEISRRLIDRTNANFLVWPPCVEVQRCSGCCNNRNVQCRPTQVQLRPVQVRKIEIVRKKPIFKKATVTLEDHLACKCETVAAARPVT
Sequence of mouse HGF (Q08048 33-728 limits assumed): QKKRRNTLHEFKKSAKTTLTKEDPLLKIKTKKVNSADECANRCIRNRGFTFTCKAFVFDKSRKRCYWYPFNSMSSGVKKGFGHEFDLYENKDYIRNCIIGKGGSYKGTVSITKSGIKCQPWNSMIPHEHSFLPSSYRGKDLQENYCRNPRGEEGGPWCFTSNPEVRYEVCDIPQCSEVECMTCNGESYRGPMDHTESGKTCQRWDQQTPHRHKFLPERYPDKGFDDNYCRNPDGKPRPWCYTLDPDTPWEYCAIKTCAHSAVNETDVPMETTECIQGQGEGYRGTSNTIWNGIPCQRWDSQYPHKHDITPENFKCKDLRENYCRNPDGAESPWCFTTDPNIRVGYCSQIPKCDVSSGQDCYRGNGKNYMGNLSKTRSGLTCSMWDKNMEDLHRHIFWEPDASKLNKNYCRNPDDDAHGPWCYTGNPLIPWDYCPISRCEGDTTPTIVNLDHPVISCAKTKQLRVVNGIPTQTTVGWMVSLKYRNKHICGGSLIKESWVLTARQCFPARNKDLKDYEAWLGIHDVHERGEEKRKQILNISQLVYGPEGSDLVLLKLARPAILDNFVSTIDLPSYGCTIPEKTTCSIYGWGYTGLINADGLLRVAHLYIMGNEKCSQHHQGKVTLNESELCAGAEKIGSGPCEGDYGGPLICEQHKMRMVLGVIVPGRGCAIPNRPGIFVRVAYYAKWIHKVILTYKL
Sequence of rat serum albumin (P02770 25-608 limits assumed): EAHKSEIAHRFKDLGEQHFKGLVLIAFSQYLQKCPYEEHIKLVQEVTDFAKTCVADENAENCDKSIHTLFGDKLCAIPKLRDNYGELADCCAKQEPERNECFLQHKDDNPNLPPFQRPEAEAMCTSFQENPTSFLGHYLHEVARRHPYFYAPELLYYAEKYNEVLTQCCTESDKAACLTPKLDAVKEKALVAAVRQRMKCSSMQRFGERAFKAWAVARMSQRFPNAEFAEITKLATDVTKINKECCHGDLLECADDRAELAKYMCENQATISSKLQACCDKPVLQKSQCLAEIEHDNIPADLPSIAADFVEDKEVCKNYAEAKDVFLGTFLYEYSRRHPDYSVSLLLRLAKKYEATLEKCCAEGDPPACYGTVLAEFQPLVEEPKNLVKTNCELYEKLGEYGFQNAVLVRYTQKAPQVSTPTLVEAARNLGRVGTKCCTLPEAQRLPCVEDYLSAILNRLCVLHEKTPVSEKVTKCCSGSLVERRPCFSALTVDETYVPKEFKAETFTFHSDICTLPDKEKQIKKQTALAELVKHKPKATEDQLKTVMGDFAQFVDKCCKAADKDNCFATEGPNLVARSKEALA
Sequence of dog serum albumin (P49822 25-608 limits assumed): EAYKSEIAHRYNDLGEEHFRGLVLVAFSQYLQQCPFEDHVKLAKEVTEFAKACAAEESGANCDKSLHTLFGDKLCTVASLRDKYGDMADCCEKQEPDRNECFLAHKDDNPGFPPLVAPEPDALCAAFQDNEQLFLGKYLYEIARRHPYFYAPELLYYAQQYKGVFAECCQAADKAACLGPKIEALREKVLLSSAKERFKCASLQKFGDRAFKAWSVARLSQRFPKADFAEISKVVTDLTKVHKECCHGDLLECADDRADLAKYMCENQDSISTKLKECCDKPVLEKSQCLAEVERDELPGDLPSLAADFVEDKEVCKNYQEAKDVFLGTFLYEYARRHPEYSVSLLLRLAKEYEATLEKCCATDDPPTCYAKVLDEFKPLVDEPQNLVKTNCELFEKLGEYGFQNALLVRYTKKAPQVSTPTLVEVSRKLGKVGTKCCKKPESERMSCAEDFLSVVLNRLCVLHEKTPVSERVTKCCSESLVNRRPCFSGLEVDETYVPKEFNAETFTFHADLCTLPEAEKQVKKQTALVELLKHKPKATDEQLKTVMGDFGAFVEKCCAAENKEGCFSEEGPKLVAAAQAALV
T4 sequence (P02768 25-609 limits assumed): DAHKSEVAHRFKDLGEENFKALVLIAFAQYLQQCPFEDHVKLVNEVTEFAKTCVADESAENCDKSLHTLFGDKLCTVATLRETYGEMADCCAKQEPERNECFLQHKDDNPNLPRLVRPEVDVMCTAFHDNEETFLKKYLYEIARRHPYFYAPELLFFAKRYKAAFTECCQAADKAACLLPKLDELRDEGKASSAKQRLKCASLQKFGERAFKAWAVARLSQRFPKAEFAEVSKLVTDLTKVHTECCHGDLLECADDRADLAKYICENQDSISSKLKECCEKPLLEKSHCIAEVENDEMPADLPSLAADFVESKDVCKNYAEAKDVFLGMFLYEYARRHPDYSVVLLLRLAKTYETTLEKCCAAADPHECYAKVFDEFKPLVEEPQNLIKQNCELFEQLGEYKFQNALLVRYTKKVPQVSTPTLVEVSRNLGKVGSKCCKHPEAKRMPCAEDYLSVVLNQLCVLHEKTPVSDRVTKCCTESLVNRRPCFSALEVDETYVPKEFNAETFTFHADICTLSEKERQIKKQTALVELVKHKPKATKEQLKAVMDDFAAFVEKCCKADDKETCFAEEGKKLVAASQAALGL

B1: Protein #134 (designed binder)
chain: GSDLGKKLLEAARAGQDDEVRELLKAGADVNAKDYFSHTPLHLAARNGHLKIVEVLLKAGADVNAKDFAGKTPLHLAANEGHLEIVEVLLKAGADVNAQDIFGKTPADIAADAGHEDIAEVLQKAAGSPTPTPTTPTPTPTTPTPTPTGSDLGKKLLEAARAGQDDEVRILLKAGADVNAKDRYGDTPLHLAADIGHLEIVEVLLKAGADVNAEDYFGNTPLHLAASYGHLEIVEVLLKAGADVNAKDDYGNTPLHLAANTGHLEIVEVLLKAGADVNAQDKSGKTPADLAADAGHEDIAEVLQKAAGSPTPTPTTPTPTPTTPTPTPTGSDLDKKLLEAARAGQDDEVRILLKAGADVNAKDSTGWTPLHLAAPWGHPEIVEVLLKAGADVNAKDFQGWTPLHLAAAAGHLEIVEVLLKAGADVNAQDKSGKTPADLAADAGHEDIAEVLQKAAGSPTPTPTTPTPTPTTPTPTPTGSDLGKKLLEAARAGQDDEVRELLKAGADVNAKDYFSHTPLHLAARNGHLKIVEVLLKAGADVNAKDFAGKTPLHLAANEGHLEIVEVLLKAGADVNAQDIFGKTPADIAADAGHEDIAEVLQKAA
notes: Four designed ankyrin repeat domains (serum albumin, HGF, VEGF-A, serum albumin); one molecule is used here
In the case of B1, the IC50 (human VEGF-A [1]) is reported as 0.0045 nM, the EC50 (human VEGF-A [2]) is reported as 0.024 nM and the binding result (Human PDGF-AB) is reported as “no binding (tested: 100 nM to 0.01 pM)”. For the same binder, the binding result (Human VEGF-C) was “no binding (tested: 100 nM to 0.01 pM)”, the IC50 (human HGF [3]) was 0.92 nM and the EC50 (human HGF [4]) was 0.024 nM. For the same binder, the EC50 (human VEGF-A [5]) was 0.024 nM, the EC50 [6] was 0.017 nM and the EC50 (human serum albumin) was 0.013 nM. It also gave an EC50 (mouse VEGF-A) of 0.021 nM, an EC50 (mouse HGF) of 0.045 nM and an EC50 (mouse serum albumin) of 0.015 nM. The EC50 (dog serum albumin) was 0.023 nM, the EC50 (rat serum albumin) was 0.017 nM and the EC50 (cynomolgus monkey HGF) was 0.04 nM. It also gave an EC50 (rat VEGF-A) of 0.022 nM, an IC50 (human VEGF-A [7]) of under 0.01 nM and an IC50 [8] of 0.6 nM. The “Inhibition of cMet phosphorylation in A549 cells, IC50” value (human HGF [9]) was 0.184 nM, the “inhibition of cMet phosphorylation in A549 cells, IC50” value (human HGF [9]) was under 1 nM and the “Inhibition of VEGF-A-induced HUVEC proliferation, IC50” value (human VEGF-A [10]) was 5.7 ng/ml and 91.3 pM. For the same binder, the “inhibition of proliferation of HUVECs, IC50” value (human VEGF-A [10]) was 0.1 to 0.15 nM.

B2: no binding (tested: 100 nM) (human HGF [11]).
